Measured values reported in patent US20080182978A1, “ANTI-NGF ANTIBODIES AND METHODS USING SAME” (RINAT NEUROSCIENCE CORP, priority 2002, published 2008).

Tests used:
[1] = target: interaction of human NGF with trkA (Homo sapiens, UniProt P01138); assay: BIAcore: blocking of NGF binding to trkA on chip; settings: 2.5 nM human NGF preincubated one hour; Fab concentration equal to NGF concentration
Method: (§1) Antibody E3 (interchangeably termed 3E) was selected for further analysis based on the high binding affinity. To test the ability of E3 to prevent the interaction of NGF with the NGF receptors trkA and p75, 2.5 nM of human NGF was premixed and incubated for one hour with 0 to 50 nM of antibody E3 (Fab). After the incubation, samples were injected at 10 ul/minute on a BIAcore CM5 chip containing 260 RU of p75 (channel 2) and 600 RU of trkA (channel 3), and percent binding was determined.

NT4/5 = target: T1, NT4/5 (Homo sapiens, UniProt P34130); assay: Mouse E17 nodose neuron survival assay, NT4/5; format: cell-based; settings: NT4/5 400 pM; antibody up to 200 nM; 48 hours
T1 sequence (P34130 81-210): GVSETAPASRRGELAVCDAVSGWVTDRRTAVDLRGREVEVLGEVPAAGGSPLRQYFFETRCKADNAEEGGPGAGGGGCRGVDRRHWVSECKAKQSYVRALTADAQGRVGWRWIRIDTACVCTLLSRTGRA
Method: (§2) The ability of antibody E3 to specifically block NGF activity was also evaluated by measurement of the capacity of the antibody to inhibit survival of mouse nodose E17 neurons in the presence of saturating concentrations of BDNF or NT4/5. Survival of nodose neurons is supported by BDNF or NT4/5; therefore, survival of these neurons is a sensitive assay to evaluate the BDNF or NT4/5-blocking ability of the anti-NGF antagonist antibody.
(§3) The survival assay was conducted as follows: time mated pregnant Swiss Webster female mice were euthanised by CO2 inhalation. The uterine horns were removed and the embryos (at embryonic day 17 or 18) were extracted and decapitated. The trigeminal and nodose ganglia were dissected and cleaned. The ganglia were then trypsinised, mechanically dissociated and plated at a density of 100-300 cells per well in defined, serum-free medium in 4-well plates (Greiner) coated with poly-L-ornithine and laminin.
(§4) E17 nodose neurons were grown either in the absence of added neurotrophic factors (negative control), or with saturating concentrations of BDNF (400 pM) (positive control) or NT4/5 (400 pM) or NGF unrelated growth factor […]. High concentrations of neurotrophins were used, as the goal of this experiment was to test specificity of the antibodies. […]

[2] = target: macrophage stimulating protein (MSP) (Homo sapiens, UniProt P26927); assay: Mouse E17/18 trigeminal neuron survival assay, MSP; format: cell-based; settings: MSP 600 pM; antibody up to 200 nM; 48 hours
Sequence of macrophage stimulating protein (MSP) (P26927 19-711, species assumed): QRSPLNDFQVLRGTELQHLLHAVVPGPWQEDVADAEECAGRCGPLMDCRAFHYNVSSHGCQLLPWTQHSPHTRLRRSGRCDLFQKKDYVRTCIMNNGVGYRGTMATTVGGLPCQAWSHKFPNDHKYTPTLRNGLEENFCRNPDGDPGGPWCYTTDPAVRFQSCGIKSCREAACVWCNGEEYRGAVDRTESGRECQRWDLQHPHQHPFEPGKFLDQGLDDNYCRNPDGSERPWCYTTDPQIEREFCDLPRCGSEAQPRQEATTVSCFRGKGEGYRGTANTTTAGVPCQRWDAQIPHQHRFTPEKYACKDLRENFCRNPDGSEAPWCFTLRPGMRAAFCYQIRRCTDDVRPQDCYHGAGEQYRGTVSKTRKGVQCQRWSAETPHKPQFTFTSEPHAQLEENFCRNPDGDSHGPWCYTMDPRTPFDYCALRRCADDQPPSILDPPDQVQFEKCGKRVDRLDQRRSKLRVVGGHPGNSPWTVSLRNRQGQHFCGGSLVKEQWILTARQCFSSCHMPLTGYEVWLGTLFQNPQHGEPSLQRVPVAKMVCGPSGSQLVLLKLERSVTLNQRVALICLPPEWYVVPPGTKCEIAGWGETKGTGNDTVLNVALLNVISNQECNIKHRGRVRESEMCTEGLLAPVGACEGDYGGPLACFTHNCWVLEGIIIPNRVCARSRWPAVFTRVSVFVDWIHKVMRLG
Method: (§5) The ability of antibody E3 to specifically block NGF activity was evaluated by measurement of the capacity of the antibody to inhibit survival of mouse E17/18 trigeminal neurons in vitro in the presence of saturating concentrations of NGF, the NGF-related neurotrophin NT3, or the NGF-unrelated neurotrophic factor, macrophage stimulating protein (MSP). The survival of mouse E17/18 trigeminal neurons is a sensitive assay to evaluate the NGF-blocking activity of anti-NGF antagonist antibodies because NGF is required to support survival of these neurons at higher concentrations than the level of NGF required to support survival of E13.5 TG neurons).
as §3
(§6) E17/18 trigeminal neurons were grown either without added neurotrophic factors (negative control) or in the presence of saturating concentrations of human NGF (400 pM and 15 pM) (positive control); NT3 (400 pM); or MSP (600 pM). […]

[3] = target: interaction of human NGF with p75 (Homo sapiens, UniProt P01138); assay: BIAcore: blocking of NGF binding to p75 on chip; settings: 2.5 nM human NGF preincubated one hour; Fab concentration equal to NGF concentration
Sequence of interaction of human NGF with p75 (P01138 122-241): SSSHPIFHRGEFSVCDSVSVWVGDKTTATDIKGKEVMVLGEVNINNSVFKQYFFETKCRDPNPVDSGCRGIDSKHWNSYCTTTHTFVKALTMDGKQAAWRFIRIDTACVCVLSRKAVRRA
Method: as §1

BDNF = target: T2, BDNF (Homo sapiens, UniProt P23560); assay: Mouse E17 nodose neuron survival assay, BDNF; format: cell-based; settings: BDNF 400 pM; antibody up to 200 nM; 48 hours
T2 sequence (P23560 129-247): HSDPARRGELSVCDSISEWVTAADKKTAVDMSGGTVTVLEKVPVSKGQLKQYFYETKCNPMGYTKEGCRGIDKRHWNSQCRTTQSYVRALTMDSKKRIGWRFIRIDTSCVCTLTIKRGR
Method: as §2, §3, §4

human NGF [4] = target: T3, human NGF (Homo sapiens, UniProt P01138); assay: BIAcore affinity determination assay (kon, koff, KD of purified Fabs); format: binding; settings: Fab on immobilized human NGF
T3 sequence (P01138 122-241): as the sequence (P01138 122-241) above
Method: Affinities of anti-NGF Fabs and monoclonal antibodies were determined using the BIAcore300™ surface plasmon resonance (SPR) system (BIAcore, INC, Piscaway N.J.). CM5 chips were activated with N-ethyl-N′-(3-dimethylaminopropyl)-carbodimide hydrochloride (EDC) and N-hydroxysuccinimide (NHS) according to the supplier's instructions. Human NGF was diluted into 10 mM sodium acetate pH 4.0 and injected over the activated chip at a concentration of 0.005 mg/mL. Using variable flow time across the individual chip channels, two ranges of antigen density were achieved: 100-200 response units (RU) for detailed kinetic studies and 500-600 RU for screening assays. The chip was blocked with ethanolamine. […] HBS-EP buffer (0.01M HEPES, pH 7.4, 0.15 NaCl, 3 mM EDTA, 0.005% Surfactant […]) was used as running buffer for all the BIAcore assays.
Serial dilutions (0.1-10× estimated KD) of purified Fab samples were injected for 1 min at 100 μL/min and dissociation times of up to 2 h were allowed. The concentrations of the Fab proteins were determined by ELISA and/or SDS-PAGE electrophoresis using as a standard a Fab of known concentration (as determined by amino acid analysis). Kinetic association rates (kon) and dissociation rates (koff) were obtained simultaneously by fitting the data to a 1:1 Langmuir binding model (Karlsson, R. Roos, H. Fagerstam, L. Petersson, B. (1994). Methods Enzymology 6. 99-110) using the BIAevaluation program. Equilibrium dissociation constant (KD) values were calculated as koff/kon.
The binding affinities to human NGF of Fabs E3 and 3C were measured using BIAcore analysis according to the manufacturer's instructions and as described above, except that 100 RU NGF was used on chip to prevent a rebinding effect. Briefly, several concentrations of antibodies (Fabs) were injected for 2 minutes onto a CM5 chip with 100 RU of immobilized human NGF on it, and permitted to dissociate for 1800 seconds. Mouse antibody 911 (Fab) was analyzed as a control. Data was analyzed using BIAevaluation software following the manufacturer's instructions. E3 bound human NGF with a KD of approximately 0.07 nM (and with a kon of about 6.0e5 M-1s-1, and a koff of about 4.2e-5s-1).

LIF = LIF (Homo sapiens, UniProt P15018); assay: Mouse E17 nodose neuron survival assay, LIF; format: cell-based; settings: LIF 2.5 nM; antibody up to 200 nM; 48 hours
Sequence of LIF (P15018 23-202, species assumed): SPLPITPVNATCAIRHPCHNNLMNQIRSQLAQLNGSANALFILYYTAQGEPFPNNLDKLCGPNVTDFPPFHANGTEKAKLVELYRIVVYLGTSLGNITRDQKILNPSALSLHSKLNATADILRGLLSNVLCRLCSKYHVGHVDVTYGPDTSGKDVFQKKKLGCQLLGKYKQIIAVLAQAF
Method: as §2, §3, §4

NT3 = target: T4, NT3 (Homo sapiens, UniProt P20783); assay: Mouse E17/18 trigeminal neuron survival assay, NT3; format: cell-based; settings: saturating NT3; antibody up to 200 nM; 48 hours
T4 sequence (P20783 139-257): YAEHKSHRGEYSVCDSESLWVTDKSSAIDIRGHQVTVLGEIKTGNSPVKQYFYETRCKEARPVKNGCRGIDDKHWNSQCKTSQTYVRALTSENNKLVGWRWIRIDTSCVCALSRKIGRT
Method: as §5, §3, §6

human NGF [5] = target: T3, human NGF; assay: Mouse E17/18 trigeminal neuron survival assay, NGF; format: cell-based; settings: saturating NGF (400 pM); 48 hours
Method: as §5, §3, §6

Sequence of interaction of human NGF with trkA (P01138 122-241): as the sequence (P01138 122-241) above

B1: E3 (Fab): Fab fragment of humanized anti-NGF antibody E3 (antibody, V domains shown)
VH: QVQLQESGPGLVKPSETLSLTCTVSGFSLIGYDLNWIRQPPGKGLEWIGIIWGDGTTDYNSAVKSRVTISKDTSKNQFSLKLSSVTAADTAVYYCARGGYWYATSYYFDYWGQGTLVTVS
VL: DIQMTQSPSSLSASVGDRVTITCRASQSISNNLNWYQQKPGKAPKLLIYYTSRFHSGVPSRFSGSGSGTDFTFTISSLQPEDIATYYCQQEHTLPYTFGQGTKLEIKRT
- NGF binding to trkA (percent maximum RU) [1]: no NGF binding was observed
- survival of E17 nodose neurons promoted by NT4/5 (NT4/5): did not inhibit
- survival of E17/18 trigeminal neurons promoted by MSP [2]: did not inhibit
- NGF binding to p75 (percent maximum RU) [3]: no NGF binding was observed
- survival of E17 nodose neurons promoted by BDNF (BDNF): did not inhibit
- koff (human NGF [4]): <4e-05 s⁻¹
- kon (human NGF [4]): 600000 M⁻¹ s⁻¹
- survival of E17 nodose neurons promoted by LIF (LIF): did not inhibit
- survival of E17/18 trigeminal neurons promoted by NT3 (NT3): did not inhibit
- survival of E17/18 trigeminal neurons promoted by NGF (human NGF [5]): totally blocked
